Source: US11833164B2, “Methods of treating Fabry disease in patients having a mutation in the GLA gene” (Amicus Therapeutics, Inc., priority 2019, dated 2023)

Test system: mutant form of α-Gal A expressed in HEK-293 cells
Assay: HEK assay (GLP HEK / Migalastat Amenability Assay): α-Gal A activity in lysates of transiently transfected HEK-293 cells incubated with or without 10 μM migalastat
Assay type: cell-based, human
Details: for Absolute increase (% WT) / Relative increase: 10 μM migalastat versus baseline; for Baseline α-Gal A activity (% WT): absence of migalastat; for Baseline α-Gal A activity (% WT) / 10 μM migalastat α-Gal A activity (% WT): percentage of baseline wild-type α-Gal A activity; for Baseline α-Gal A activity (% WT) / Baseline α-Gal A activity / 10 μM migalastat α-Gal A activity / 10 μM migalastat α-Gal A activity (% WT): mean ± SEM; for Baseline α-Gal A activity / 10 μM migalastat α-Gal A activity: lysates of HEK-293 cells transiently transfected with the mutant form; for Baseline α-Gal A activity: incubated 5 days in absence of migalastat; for 10 μM migalastat α-Gal A activity: incubated 5 days with 10 μM migalastat; for 10 μM migalastat α-Gal A activity (% WT): with 10 μM migalastat, 5 days
Procedure, shortened: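 Activity reported as 4-MU released (nmol/mg/hr), mean±SEM, from lysates of transiently transfected HEK-293 cells expressing mutant α-Gal A, cultured with or without 10 μM migalastat.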

Row | Molecule | Absolute increase (% WT) | Relative increase | Baseline α-Gal A activity (% WT) | Baseline α-Gal A activity | 10 μM migalastat α-Gal A activity | 10 μM migalastat α-Gal A activity (% WT)
1 | N355S (protein) MQLRNPELHLGCALALRFLALVSWDIPGARALDNGLARTPTMGWLHWERFMCNLDCQEEPDSCISEKLFMEMAELMVSEGWKDAGYEYLCIDDCWMAPQRDSEGRLQADPQRFPHGIRQLANYVHSKGLKLGIYADVGNKTCAGFPGSFGYYDIDAQTFADWGVDLLKFDGCYCDSLENLADGYKHMSLALNRTGRSIVYSCEWPLYMWPFQKPNYTEIRQYCNHWRNFADIDDSWKSIKSILDWTSFNQERIVDVAGPGGWNDPDMLVIGNFGLSWNQQVTQMALWAIMAAPLFMSNDLRHISPQAKALLQDKDVIAINQDPLGKQGYQLRQGDNFEVWERPLSGLAWAVAMISRQEIGGPRSYTIAVASLGKGVACNPACFITQLLPVKRKLGFYEWTSRLRSHINPTGTVLLQLENTMQMSLKDLL | 30.8 % WT | 2.2 | 25.9 ± 1.6 % WT | 11397 ± 817 nmol/mg/h | 24820 ± 1396 nmol/mg/h | 56.7 ± 2.8 % WT
2 | I359S (protein) MQLRNPELHLGCALALRFLALVSWDIPGARALDNGLARTPTMGWLHWERFMCNLDCQEEPDSCISEKLFMEMAELMVSEGWKDAGYEYLCIDDCWMAPQRDSEGRLQADPQRFPHGIRQLANYVHSKGLKLGIYADVGNKTCAGFPGSFGYYDIDAQTFADWGVDLLKFDGCYCDSLENLADGYKHMSLALNRTGRSIVYSCEWPLYMWPFQKPNYTEIRQYCNHWRNFADIDDSWKSIKSILDWTSFNQERIVDVAGPGGWNDPDMLVIGNFGLSWNQQVTQMALWAIMAAPLFMSNDLRHISPQAKALLQDKDVIAINQDPLGKQGYQLRQGDNFEVWERPLSGLAWAVAMINRQESGGPRSYTIAVASLGKGVACNPACFITQLLPVKRKLGFYEWTSRLRSHINPTGTVLLQLENTMQMSLKDLL | 29.6 % WT | 1.3 | 101.6 ± 6.3 % WT | 37737 ± 2594 nmol/mg/h | 48055 ± 2727 nmol/mg/h | 131.2 ± 8.4 % WT
3 | I359F (protein) MQLRNPELHLGCALALRFLALVSWDIPGARALDNGLARTPTMGWLHWERFMCNLDCQEEPDSCISEKLFMEMAELMVSEGWKDAGYEYLCIDDCWMAPQRDSEGRLQADPQRFPHGIRQLANYVHSKGLKLGIYADVGNKTCAGFPGSFGYYDIDAQTFADWGVDLLKFDGCYCDSLENLADGYKHMSLALNRTGRSIVYSCEWPLYMWPFQKPNYTEIRQYCNHWRNFADIDDSWKSIKSILDWTSFNQERIVDVAGPGGWNDPDMLVIGNFGLSWNQQVTQMALWAIMAAPLFMSNDLRHISPQAKALLQDKDVIAINQDPLGKQGYQLRQGDNFEVWERPLSGLAWAVAMINRQEFGGPRSYTIAVASLGKGVACNPACFITQLLPVKRKLGFYEWTSRLRSHINPTGTVLLQLENTMQMSLKDLL | 14.1 % WT | 2.1 | 13 ± 1 % WT | 6138 ± 568 nmol/mg/h | 13144 ± 1091 nmol/mg/h | 27 ± 1.6 % WT
4 | I359L (protein) MQLRNPELHLGCALALRFLALVSWDIPGARALDNGLARTPTMGWLHWERFMCNLDCQEEPDSCISEKLFMEMAELMVSEGWKDAGYEYLCIDDCWMAPQRDSEGRLQADPQRFPHGIRQLANYVHSKGLKLGIYADVGNKTCAGFPGSFGYYDIDAQTFADWGVDLLKFDGCYCDSLENLADGYKHMSLALNRTGRSIVYSCEWPLYMWPFQKPNYTEIRQYCNHWRNFADIDDSWKSIKSILDWTSFNQERIVDVAGPGGWNDPDMLVIGNFGLSWNQQVTQMALWAIMAAPLFMSNDLRHISPQAKALLQDKDVIAINQDPLGKQGYQLRQGDNFEVWERPLSGLAWAVAMINRQELGGPRSYTIAVASLGKGVACNPACFITQLLPVKRKLGFYEWTSRLRSHINPTGTVLLQLENTMQMSLKDLL | 25.6 % WT | 1.7 | 39.1 ± 1.8 % WT | 16254 ± 909 nmol/mg/h | 26791 ± 1713 nmol/mg/h | 64.7 ± 3.9 % WT
5 | I359N (protein) MQLRNPELHLGCALALRFLALVSWDIPGARALDNGLARTPTMGWLHWERFMCNLDCQEEPDSCISEKLFMEMAELMVSEGWKDAGYEYLCIDDCWMAPQRDSEGRLQADPQRFPHGIRQLANYVHSKGLKLGIYADVGNKTCAGFPGSFGYYDIDAQTFADWGVDLLKFDGCYCDSLENLADGYKHMSLALNRTGRSIVYSCEWPLYMWPFQKPNYTEIRQYCNHWRNFADIDDSWKSIKSILDWTSFNQERIVDVAGPGGWNDPDMLVIGNFGLSWNQQVTQMALWAIMAAPLFMSNDLRHISPQAKALLQDKDVIAINQDPLGKQGYQLRQGDNFEVWERPLSGLAWAVAMINRQENGGPRSYTIAVASLGKGVACNPACFITQLLPVKRKLGFYEWTSRLRSHINPTGTVLLQLENTMQMSLKDLL | 12.5 % WT | 1.6 | 20.8 ± 1.2 % WT | 10862 ± 655 nmol/mg/h | 17332 ± 879 nmol/mg/h | 33.3 ± 1.8 % WT
6 | Q357E (protein) MQLRNPELHLGCALALRFLALVSWDIPGARALDNGLARTPTMGWLHWERFMCNLDCQEEPDSCISEKLFMEMAELMVSEGWKDAGYEYLCIDDCWMAPQRDSEGRLQADPQRFPHGIRQLANYVHSKGLKLGIYADVGNKTCAGFPGSFGYYDIDAQTFADWGVDLLKFDGCYCDSLENLADGYKHMSLALNRTGRSIVYSCEWPLYMWPFQKPNYTEIRQYCNHWRNFADIDDSWKSIKSILDWTSFNQERIVDVAGPGGWNDPDMLVIGNFGLSWNQQVTQMALWAIMAAPLFMSNDLRHISPQAKALLQDKDVIAINQDPLGKQGYQLRQGDNFEVWERPLSGLAWAVAMINREEIGGPRSYTIAVASLGKGVACNPACFITQLLPVKRKLGFYEWTSRLRSHINPTGTVLLQLENTMQMSLKDLL | 41.5 % WT | 1.9 | 42.8 ± 2.1 % WT | 15264 ± 877 nmol/mg/h | 28922 ± 1194 nmol/mg/h | 84.3 ± 6.3 % WT
7 | N355Y (protein) MQLRNPELHLGCALALRFLALVSWDIPGARALDNGLARTPTMGWLHWERFMCNLDCQEEPDSCISEKLFMEMAELMVSEGWKDAGYEYLCIDDCWMAPQRDSEGRLQADPQRFPHGIRQLANYVHSKGLKLGIYADVGNKTCAGFPGSFGYYDIDAQTFADWGVDLLKFDGCYCDSLENLADGYKHMSLALNRTGRSIVYSCEWPLYMWPFQKPNYTEIRQYCNHWRNFADIDDSWKSIKSILDWTSFNQERIVDVAGPGGWNDPDMLVIGNFGLSWNQQVTQMALWAIMAAPLFMSNDLRHISPQAKALLQDKDVIAINQDPLGKQGYQLRQGDNFEVWERPLSGLAWAVAMIYRQEIGGPRSYTIAVASLGKGVACNPACFITQLLPVKRKLGFYEWTSRLRSHINPTGTVLLQLENTMQMSLKDLL | 26.6 % WT | 2.8 | 15.2 ± 1 % WT | 5994 ± 461 nmol/mg/h | 16930 ± 1745 nmol/mg/h | 41.8 ± 3.3 % WT
8 | R356L (protein) MQLRNPELHLGCALALRFLALVSWDIPGARALDNGLARTPTMGWLHWERFMCNLDCQEEPDSCISEKLFMEMAELMVSEGWKDAGYEYLCIDDCWMAPQRDSEGRLQADPQRFPHGIRQLANYVHSKGLKLGIYADVGNKTCAGFPGSFGYYDIDAQTFADWGVDLLKFDGCYCDSLENLADGYKHMSLALNRTGRSIVYSCEWPLYMWPFQKPNYTEIRQYCNHWRNFADIDDSWKSIKSILDWTSFNQERIVDVAGPGGWNDPDMLVIGNFGLSWNQQVTQMALWAIMAAPLFMSNDLRHISPQAKALLQDKDVIAINQDPLGKQGYQLRQGDNFEVWERPLSGLAWAVAMINLQEIGGPRSYTIAVASLGKGVACNPACFITQLLPVKRKLGFYEWTSRLRSHINPTGTVLLQLENTMQMSLKDLL | 43.7 % WT | 2.8 | 24.4 ± 1 % WT | 10680 ± 518 nmol/mg/h | 29548 ± 2017 nmol/mg/h | 68.1 ± 4.6 % WT
9 | I359V (protein) MQLRNPELHLGCALALRFLALVSWDIPGARALDNGLARTPTMGWLHWERFMCNLDCQEEPDSCISEKLFMEMAELMVSEGWKDAGYEYLCIDDCWMAPQRDSEGRLQADPQRFPHGIRQLANYVHSKGLKLGIYADVGNKTCAGFPGSFGYYDIDAQTFADWGVDLLKFDGCYCDSLENLADGYKHMSLALNRTGRSIVYSCEWPLYMWPFQKPNYTEIRQYCNHWRNFADIDDSWKSIKSILDWTSFNQERIVDVAGPGGWNDPDMLVIGNFGLSWNQQVTQMALWAIMAAPLFMSNDLRHISPQAKALLQDKDVIAINQDPLGKQGYQLRQGDNFEVWERPLSGLAWAVAMINRQEVGGPRSYTIAVASLGKGVACNPACFITQLLPVKRKLGFYEWTSRLRSHINPTGTVLLQLENTMQMSLKDLL | 31.6 % WT | 1.6 | 51.5 ± 3.4 % WT | 20990 ± 1174 nmol/mg/h | 34265 ± 1528 nmol/mg/h | 83.1 ± 3.3 % WT
